{"source": "patent US20180362926", "experiment_in_all_cases": "cell_activity", "key": {"[1]": {"test_system": "SBS68879 ZFN Qm5 in F1,F3,F5; FokI K525S", "conditions": "55266-2A-68879, T cells, 12 ug mRNA"}, "[2]": {"test_system": "SBS68815 ZFN Qm5 in F1,F3,F5; FokI R416E", "conditions": "55266-2A-68815, T cells, 12 ug mRNA"}, "[3]": {"test_system": "SBS53810 ZFN", "conditions": "pair 53810:55255, K562, 500 ng/ZFN"}, "[4]": {"test_system": "SBS55254 ZFN", "conditions": "pair 55248:55254, K562, 500 ng/ZFN"}, "[5]": {"test_system": "SBS68812 ZFN Qm5 in F1,F3 (nQm5s [sic]),F4; FokI R416E", "conditions": "68812-2A-68813, T cells, 12 ug mRNA"}, "[6]": {"test_system": "SBS68876 ZFN Qm5 in F1,F3 (nQm5s [sic]),F4; FokI K525S", "conditions": "68876-2A-68877, T cells, 12 ug mRNA"}, "[7]": {"test_system": "SBS55260 ZFN", "conditions": "pair 55248:55260, K562, 500 ng/ZFN"}, "[8]": {"test_system": "SBS55255 ZFN", "conditions": "pair 53810:55255, K562, 500 ng/ZFN"}, "[9]": {"test_system": "SBS68796 ZFN Qm5 in F1,F3 (nQm5s [sic]),F4", "conditions": "68796-2A-68813, T cells, 12 ug mRNA; off-target at background"}, "[10]": {"test_system": "SBS53785 ZFN", "conditions": "pair 55229:53785, K562, 500 ng/ZFN"}, "[11]": {"test_system": "SBS55229 ZFN", "conditions": "pair 55229:53785, K562, 500 ng/ZFN"}, "[12]": {"test_system": "SBS57531 ZFN", "conditions": "pair 72732/57531, background corrected"}, "[13]": {"test_system": "SBS68957 ZFN FokI K525S", "conditions": "pair 57071/68957, background corrected"}, "[14]": {"test_system": "SBS57071 ZFN", "conditions": "pair 57071/68957, background corrected"}, "[15]": {"test_system": "SBS72748 ZFN FokI Q481D", "conditions": "pair 72748/68957, background corrected"}, "[16]": {"test_system": "SBS53759 ZFN", "conditions": "pair 55204:53759, K562, 500 ng/ZFN"}, "[17]": {"test_system": "SBS53909 ZFN", "conditions": "pair 53885:53909, K562, 500 ng/ZFN"}, "[18]": {"test_system": "SBS52742 ZFN", "conditions": "pair 52774:52742, K562, 500 ng/ZFN"}, "[19]": {"test_system": "SBS55287 ZFN", "conditions": "pair 53856:55287, K562, 500 ng/ZFN"}, "[20]": {"test_system": "SBS53863 ZFN", "conditions": "pair 53860:53863, K562, 500 ng/ZFN"}, "[21]": {"test_system": "SBS55204 ZFN", "conditions": "pair 55204:53759, K562, 500 ng/ZFN"}}}
{"sequence": "AACAGGTAAGACAGGGGTCTAGCCTGGG (double strand) [TCRA site E right]", "values": [{"measurement": "activity", "setting": "[1]", "value": 96.3, "unit": "% indels"}, {"measurement": "activity", "setting": "[2]", "value": 97.6, "unit": "% indels"}]}
{"sequence": "AGGATTCGGAACCCAATCACTG (double strand) [TCRA site of 53810]", "values": [{"measurement": "activity", "setting": "[3]", "value": 91.5, "unit": "% NHEJ"}]}
{"sequence": "CTCCTGAAAGTGGCCGGGTTTAATCTGC (double strand) [TCRA site D left]", "values": [{"measurement": "activity", "setting": "[4]", "value": 96.2, "unit": "% NHEJ"}, {"measurement": "activity", "setting": "[5]", "value": 99.9, "unit": "% indels"}, {"measurement": "activity", "setting": "[6]", "value": 99.2, "unit": "% indels"}, {"measurement": "activity", "setting": "[7]", "value": 93, "unit": "% NHEJ"}, {"measurement": "activity", "setting": "[8]", "value": 91.5, "unit": "% NHEJ"}, {"measurement": "activity", "setting": "[9]", "value": 99.3, "unit": "% indels"}]}
{"sequence": "CTGTGGCCTGGAGCAACAAATCTGACTT (double strand) [TCRA site of 53785]", "values": [{"measurement": "activity", "setting": "[10]", "value": 93.6, "unit": "% NHEJ"}]}
{"sequence": "CTGTTGCTCTTGAAGTCCATAGACCTCA (double strand) [TCRA site of 55229]", "values": [{"measurement": "activity", "setting": "[11]", "value": 93.6, "unit": "% NHEJ"}]}
{"sequence": "GAGTAGCGCGAGCACAGCTAAGGCCACG (double strand) [B2M site of 57531]", "values": [{"measurement": "activity", "setting": "[12]", "value": 95.8, "unit": "% indels"}, {"measurement": "activity", "setting": "[13]", "value": 91.6, "unit": "% indels"}]}
{"sequence": "GCCACGGAGCGAGACATCTCGGCCCGAA (double strand) [B2M site of 57071]", "values": [{"measurement": "activity", "setting": "[14]", "value": 91.6, "unit": "% indels"}, {"measurement": "activity", "setting": "[15]", "value": 93.4, "unit": "% indels"}]}
{"sequence": "GTGCTGTGGCCTGGAGCAACAAATCTGA (double strand) [TCRA site of 53759]", "values": [{"measurement": "activity", "setting": "[16]", "value": 87.7, "unit": "% NHEJ"}]}
{"sequence": "TCCTCCTGAAAGTGGCCGGGTTTAATCT (double strand) [TCRA site G right]", "values": [{"measurement": "activity", "setting": "[17]", "value": 90.2, "unit": "% NHEJ"}, {"measurement": "activity", "setting": "[18]", "value": 84.4, "unit": "% NHEJ"}]}
{"sequence": "TTCAAGAGCAACAGTGCTGTGGCCTGGA (double strand) [TCRA site F right]", "values": [{"measurement": "activity", "setting": "[19]", "value": 74.8, "unit": "% NHEJ"}, {"measurement": "activity", "setting": "[20]", "value": 87.3, "unit": "% NHEJ"}]}
{"sequence": "TTGCTCTTGAAGTCCATAGACCTCATGT (double strand) [TCRA site of 55204]", "values": [{"measurement": "activity", "setting": "[21]", "value": 87.7, "unit": "% NHEJ"}]}
